Data as given in patent US12018068B2, “Anti-O1 antibodies and uses thereof” (priority 2016, dated 2024).

B1: 54H7: mouse hybridoma anti-O1 antigen antibody (Ms IgG3), VH SEQ ID NO:47, VL SEQ ID NO:48 (antibody, V domains shown)
VH: QVHLQQPGSELVRPGASVTLSCKASGYTFTNYWMQWVKQRPGQGLEWIGNIYPGSGNTNYDEKFRSKATLTVDTSSSTAYMHLTSLTSEDSAVYYCTRNWNFDYWGQGTTLTVSS
VL: DIQMTQSPSSLSASLGERVSLTCRASQDIGSSLNWLQQEPDGTIKRLIYATSSLDSGVPKRFSGSRSGSEYSLTISSLEAEDFVDYYCLQHTDSPYTFGGGTKLELK
modifications: 54H7 VH; 54H7 VL Amino Acid Sequence
B2: KPE33: human anti-K. pneumoniae O1 antigen antibody, VH SEQ ID NO:8, VL SEQ ID NO:9, isolated as IgG2 from donor #262 (antibody, V domains shown)
VH: EVQLVESGGALVQPGGSLRLSCAVSGFIFDDYAIHWVRRAPGKGLEWVSGIAWKSGATNYADSVKGRFAISRDNSKKSMYLQMNSLGTEDTALYYCTRRRASGDDTFYYFDYWGQGTLVTVSS
VL: EIVLTQSPATLSLSPGERATLSCRASQNVNTNLAWYQQRPGQSPRLLIYDASTRAAGLPARFSGSGSGTDFTLTISSLEPEDFAVYYCQQCTNWRYTFGQGTKLEIK
modifications: KPE33 VH Amino Acid Sequence; KPE33 VL Amino Acid Sequence

Assays:
LPS (O1) = assay: LPS neutralization assay, RAW264.7-lux NF-κB luciferase reporter; type: cell-based, murine
Experimental: LPS neutralization was assayed by utilizing a murine RAW264.7 macrophage cell line carrying a firefly luciferase reporter gene under the control of an NF-κB-responsive promoter (RAW264.7-lux). Serially diluted antibody stocks were mixed with LPS in a 1:1 ratio and incubated at 4° C. for 1 hr. Antibody/LPS mixture was then diluted 1:10 into assay plates containing pre-seeded RAW264.7-lux cells (5e3 cells/well), which were then placed at 37° C./5% CO2 for 2.5 hours. Following incubations, Steady Glo (Promega) was then added to each well and incubated for another 20 min protected from light. The relative light units (RLUs) were then measured using an Envision Multilabel plate reader (Perkin Elmer). The percentage of inhibition was determined by comparing RLU derived from assays with no antibodies to RLU obtained from anti-K. pneumoniae mAbs and a negative control mAb. Activation of TLR4 receptors by bacterial LPS leads to downstream activation of the NF-κB transcriptional regulator. A decrease in induction of NF-κB-responsive luciferase activity was used to quantify LPS neutralization activity by LPS mAbs.

[1] = tested on: K. pneumoniae strain Kp4211 lux; assay: high throughput serum bactericidal assay (SBA), complement-dependent killing; type: cell-based, Klebsiella pneumoniae; conditions: for complement-dependent killing in SBA: FIG. 1B
Experimental: Peripheral blood mononuclear cells (PBMC) and sera were separated from buffy coats from healthy blood donors (N=567). PMBC were stored in liquid nitrogen whereas the plasma was stored at 4° C. To identify Klebsiella pneumoniae immune donors, all the available sera were tested for binding to Kp43816 and Kp4211 (LPS-O1 serotype), as well as to the unencapsulated mutant strain Kp43816ΔcpsB and the double mutant Kp43816ΔcpsBΔwaaL. […] In addition, all available sera were tested for their bactericidal activity in the presence of complement using a high-throughput serum bactericidal assay (SBA assay). Overnight cultures of luminescent K. pneumoniae strain 4211 (lux) were diluted in Muller Hinton II media to make OD600 to be 0.003. Equal volume of sera, 4211 lux, and baby rabbit serum (Cedarlane) were mixed in 384 well plates and incubated at 37° C. for two hours with shaking (250 rpm). The relative light units (RLUs) were then measured using an Envision Multilabel plate reader (Perkin Elmer). The percentage of killing was determined by comparing RLU derived from assays with no antibodies to RLU obtained from human sera.
The susceptibility of the K. pneumoniae strain Kp4211 lux to serum and antibody dependent killing was measured by high throughput serum bactericidal assay (SBA). Overnight cultures of luminescent K. pneumoniae strain 4211 (lux) were diluted in Muller Hinton II media to make OD600 to be 0.003. Equal volume of antibodies, 4211 lux, and baby rabbit serum (Cedarlane) were mixed in 384 well plates and incubated at 37° C. for two hours with shaking (250 rpm). The relative light units (RLUs) were then measured using an Envision Multilabel plate reader (Perkin Elmer). The percentage of killing was determined by comparing RLU derived from assays with no antibodies to RLU obtained from anti-K. pneumoniae mAbs and a negative control mAb.

[2] = tested on: K. pneumoniae capsule mutant strain 43816ΔcpsB Lux; assay: bioluminescent opsonophagocytic killing (OPK) assay with HL-60 cells; type: cell-based, Klebsiella pneumoniae; conditions: for induction of OPK killing: FIG. 1C
Experimental: (§1) PBMC donors were ranked based on their binding titers as well as their SBA and OPK activity. OPK assays were performed as described with modifications (Wang, Q. et al. Target-Agnostic Identification of Functional Monoclonal Antibodies Against Klebsiella pneumoniae Multimeric MrkA Fimbrial Subunit J Infect Dis. 2016 Jun. 1; 213(11):1800-8). Briefly, log phase cultures of luminescent K. pneumoniae capsule mutant strain 43816ΔcpsB (43816ΔcpsB Lux) were diluted to ˜2×10^6 cells/ml. Bacteria, diluted baby rabbit serum providing complement (Cedarlane, pre-absorbed with Kp43816ΔcpsB, 1:10), dimethylformamide (DMF) differentiated HL-60 cells, and sera were mixed in 384-well plates and incubated at 37° C. for two hours with shaking (250 rpm). The relative light units (RLUs) were then measured using an Envision Multilabel plate reader (Perkin Elmer). The percentage of killing was determined by comparing RLU derived from assays with no antibodies to RLU obtained from human sera.
as §1, with “OPK” for “PBMC donors were ranked based on their binding titers as well as their SBA and OPK activity. OPK”, “al., J. Infect.” for “al. Target-Agnostic Identification of Functional Monoclonal Antibodies Against Klebsiella pneumoniae Multimeric MrkA Fimbrial Subunit J Infect”, “213:1800-8 (2016)).” for “2016 Jun. 1; 213(11):1800-8).”, “antibodies” for “sera”, “anti-K. pneumoniae mAbs and a negative control mAb.” for “human sera.”

purified O1 LPS = assay: ELISA binding to purified O1 LPS; set-up: species or system Klebsiella pneumoniae; conditions: FIG. 1A
Experimental: Binding to purified O1 LPS was assayed by standard ELISA method. Briefly, ELISA plates (Nunc MaxiSorp) were coated with purified O1 LPS in PBS, pH 7.2, overnight at 4 C, followed by blocking the plates with PBS supplemented with 1% BSA (PBS-B). The coated plates were incubated with series dilutions of monoclonal antibodies for 1 h at room temperature. The plates were then washed with PBS containing 0.1% Tween-20 (PBS-T) before HRP-conjugated anti-human secondary antibodies were added for 1 hour followed by TMB TMB (3,3′,5,5′-Tetrametheylbenzidine) substrates. The absorbance of 450 nm was measured by microplate reader (Molecular Devices) and the data were plotted with Prism software.

[3] = tested on: Kp1131115 wild type and Kp1131115ΔwbbYZ strain; assay: FACS binding to Kp1131115 wild type and Kp1131115ΔwbbYZ; set-up: species or system Klebsiella pneumoniae; conditions: Kp1131115ΔwbbYZ vs wild type
Source text: Klebsiella pneumoniae wbbYZ gene locus encodes D-Galactan II domain in LPS structure, which defines O1 serotype over O2.

[4] = tested on: γδ T cell recruitment, K. pneumoniae Kp8045 infection; assay: flow cytometry of γδTCR+ T cells in lungs of infected mice; type: in vivo; conditions: for early γδ T cell recruitment, prophylaxis: 1e4 CFU Kp8045, FIG. 14A; for γδ T cell recruitment, treatment 1 hour post infection: 1e4 CFU Kp8045, FIG. 14B
Experimental: TLR4 signaling has been implicated in the recruitment and activation of γδ T cells, a key cell population in the innate immune defense of the mucosa. In order to examine the effect of LPS-neutralizing and LPS-non-neutralizing anti-O1 antibodies on γδ T cell recruitment, the percent of γδTCR^+ T cells was measured in the lungs of mice treated with anti-O1 antibodies and infected with K. pneumoniae (1e4 CFU Kp8045).

[5] = tested on: K. pneumoniae (1e4 CFU Kp8045); assay: survival of wild type and IL-17A−/− mice after lethal K. pneumoniae infection; type: in vivo, Klebsiella pneumoniae; conditions: prophylactic treatment
Source text: γδ T cells are major producers of IL-17, which activates key antimicrobial pathways and the phagocytic function of neutrophils. […] Wild type and IL-17A−/− mice were prophylactically treated with c-IgG, 54H7, or KPE33 and infected with a lethal number of K. pneumoniae.

Molecule | LPS Neut (O1) IC50 (LPS (O1)) | LPS neutralization (LPS (O1)) | SBA Kp4211lux IC50 [1] | complement-dependent killing in SBA [1] | D Capsule OPK IC50 [2] | induction of OPK killing [2] | binding to purified O1 LPS (purified O1 LPS) | effect of wbbYZ gene knockout on binding [3] | early γδ T cell recruitment, prophylaxis [4] | γδ T cell recruitment, treatment 1 hour post infection [4] | survival of IL-17A−/− mice compared to wild type mice [5] | complement-dependent killing (SBA) in primary screening ([1]; strain Kp4211 (LPS-O1))
B1 | <0.1 ng/mL | neutralized LPS | 5.2 ng/mL | kill K. pneumoniae via complement-dependent killing | 2.5 ng/mL | induced OPK killing | bound to purified O1 LPS | completely abolished the binding | inhibited | did not inhibit recruitment | No difference in survival | –
B2 | – | did not | 64 ng/mL | kill K. pneumoniae via complement-dependent killing | 2.5 ng/mL | induced OPK killing | bound to purified O1 LPS | completely abolished the binding | not | did not inhibit recruitment | significant reduction in survival | mediate complement-dependent killing
